Data on 16 molecules can be found in patent US20250154278A1 (JANUX THERAPEUTICS, published 2025).

Positions count from the first letter of the chain named. Numbers in names are those of the source. Like-named read-outs stand apart in the source and are kept apart here. Bounds are passed on as bounds.

Experiment [1] concerns the target T1, Human TROP2 full length, on tumor cells (HCT116, MDAMB231, NCI-H292) (human, UniProt P09758 31-323).
T1 sequence: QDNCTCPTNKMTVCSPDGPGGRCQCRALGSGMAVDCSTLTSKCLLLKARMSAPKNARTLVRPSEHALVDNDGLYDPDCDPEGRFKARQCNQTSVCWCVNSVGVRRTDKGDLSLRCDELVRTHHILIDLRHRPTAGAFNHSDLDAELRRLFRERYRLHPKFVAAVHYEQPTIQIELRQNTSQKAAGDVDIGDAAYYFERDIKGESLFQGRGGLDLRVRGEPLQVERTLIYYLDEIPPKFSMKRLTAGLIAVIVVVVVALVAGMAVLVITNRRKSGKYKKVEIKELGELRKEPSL
Description: cell-based or functional assay.

Experiment [2] has as its target T1, Human TROP2 full length, on tumor cells …. Description: cell-based or functional assay. This is another data set of the same source.
For experiment [3] the target is unchanged. Kind of experiment: cell-based or functional assay. This is another data set of the same source.
For experiment [4], the target named is T2, human CD3 epsilon, biotinylated (human, UniProt P07766 23-126, limits assumed, biotinylated (site not stated)).
T2 construct: Printed in places as CD36, CD38, CD3c or CD3&; also called CD3e-bio; human CD3e-biotin
T2 sequence (P07766 23-126 limits assumed): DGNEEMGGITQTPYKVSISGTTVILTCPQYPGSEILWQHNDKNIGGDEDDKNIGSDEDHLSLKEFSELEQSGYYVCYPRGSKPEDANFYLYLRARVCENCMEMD
Kind of experiment: ELISA, CD3e-biotin captured. In general terms: ELISA stands for enzyme-linked immunosorbent assay.

For experiment [5], the target named is T2, human CD3 epsilon, biotinylated. Description: BLI, CD3e-biotin on sensor (summary). On the technique in general: Biolayer interferometry detects binding as a change in optical thickness at a sensor tip.
For experiment [6] the target is unchanged. Description: BLI, CD3e-biotin on sensor, 50 nM TCE.
For experiment [7] the target is unchanged. Description: CD3 binding ELISA.
Experiment [8] deals with T1, Human TROP2 full length, on tumor cells …. Description: cell-based or functional assay. This is another data set of the same source.
Experiment [9] concerns the target T3, Cynomolgus monkey TROP2 full length, on recombinant HEK293 cells (cynomolgus monkey, UniProt P09758 31-323 (human entry)).
T3 chain: T1 sequence with M32V, S63N, I200V, M262V, T268S
Kind of experiment: cell-based or functional assay.

Experiment [10] concerns the target T4, Human TROP2 ECD (31-274 AA), biotinylated (human, UniProt P09758 31-274, biotinylated (site not stated)).
T4 construct: the entry is already residues 31-274; also called Human TROP2-biotin; hTROP2-Biotin
T4 sequence: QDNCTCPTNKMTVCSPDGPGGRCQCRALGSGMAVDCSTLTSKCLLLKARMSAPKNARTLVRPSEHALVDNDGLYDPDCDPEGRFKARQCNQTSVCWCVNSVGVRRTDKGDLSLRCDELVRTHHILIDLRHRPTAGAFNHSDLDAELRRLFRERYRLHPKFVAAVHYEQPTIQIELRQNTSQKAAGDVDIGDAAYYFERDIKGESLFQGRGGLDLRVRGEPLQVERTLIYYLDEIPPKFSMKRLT
Kind of experiment: TROP2 binding ELISA, biotinylated TROP2 on neutravidin plates.

Another experiment concerns the target T5, Cyno CD3 (Antigen was biotinylated for capture on neutravidin plates; the site of biotin and any tag are not stated.).
T5 construct: also called cynomolgus monkey CD3
T5 chain: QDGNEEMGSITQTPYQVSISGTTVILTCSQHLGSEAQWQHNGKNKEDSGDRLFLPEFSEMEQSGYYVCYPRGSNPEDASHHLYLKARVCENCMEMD
Kind of experiment: Cyno CD3 binding ELISA.

The target in experiment [11] is T2, human CD3 epsilon, biotinylated. Description: Human CD3 binding ELISA.
Experiment [12] deals with T1, Human TROP2 full length, on tumor cells …. Kind of experiment: cell-based or functional assay. The source holds these as a separate data set.
Experiment [13] has as its target T4, Human TROP2 ECD (31-274 AA), …. Description: TROP2 binding ELISA; the table's head prints only 'EC50', the unit is that of the axis Log [TCE nM].
Experiment [14] deals with T1, Human TROP2 full length, on tumor cells …. Description: cell-based or functional assay. This is another data set of the same source.
The target in experiment [15] is T4, Human TROP2 ECD (31-274 AA), …. Description: ELISA, immobilized TROP2, HRP secondary antibody.
For experiment [16] the target is unchanged. Description: BLI, human TROP2-biotin (10 nM) on sensor, 50 nM TCE.

B1: TCE-9 (anti-CD3 scFv wt + linker + anti-TROP2 HC wt; anti-TROP2 LC wt) (bispecific antibody)
light: DIQLTQSPSSLSASVGDRVSITCKASQDVSIAVAWYQQKPGKAPKLLIYSASYRYTGVPDRFSGSGSGTDFTLTISSLQPEDFAVYYCQQHYITPLTFGAGTKVEIKRTVAAPSVFIFPPSDEQLKSGTASVVCLLNNFYPREAKVQWKVDNALQSGNSQESVTEQDSKDSTYSLSSTLTLSKADYEKHKVYACEVTHQGLSSPVTKSFNRGEC
heavy: not shown
With B1, the “H292 Cytotox EC50” value in [1], in [2] and in [3] was 0.7 pM in each case.

B2: TCE-35 (anti-CD3 scFv with P41S, A49G, N87S, L150F, T151S, G163R, P175A, K181T, T200V, A202D, L208I, G211N, L217I, S218T, V220A, P222A, E223D, A226S, E227D; … (bispecific antibody)
light: B1 light
heavy: EVQLVESGGGLVQPGGSLKLSCAASGFTFNKYAMNWVRQASGKGLEWVGRIRSKYNNYATYYADSVKDRFTISRDDSKNTAYLQMNSLKTEDTAVYYCVRHGNFGNSYISYWAYWGQGTLVTVSSGGGGSGGGGSGGGGSQTVVTQEPSFSVSPGGTVTLTCRSSTGAVTSGNYANWVQQTPGQAPRGLIGGTKFLAPGVPDRFSGSILGNKAALTITGAQADDESDYYCVLWYSNRWVFGGGTKLTVLGGGGSQVQLQQSGSELKKPGASVKVSCKASGYTFTNYGMNWVKQAPGQGLKWMGWINTYTGEPTYTDDFKGRFAFSLDTSVSTAYLQISSLKADDTAVYFCARGGFGSSYWYFDVWGQGSLVTVSSASTKGPSVFPLAPSSKSTSGGTAALGCLVKDYFPEPVTVSWNSGALTSGVHTFPAVLQSSGLYSLSSVVTVPSSSLGTQTYICNVNHKPSNTKVDKKVEPKSC
Regarding B2, the “H292 Cytotox EC50” value in experiment [3] was 0.5 pM.

B3: TCE-34 (anti-CD3 scFv F240A, anti-TROP2 wt) (bispecific antibody)
light: B1 light
heavy: not shown
As a reminder, the EC50 is the midpoint of the concentration-response curve. With B3, the “H292 Cytotox EC50” value in experiment [2] came out at 20 pM. Moreover, the response in experiment [4] was half-maximal at 0.6 nM (EC50). Besides, in [5], the “CD3 t1/2” value amounted to 0.65 min.

B4: TCE-36 (anti-CD3 scFv with N30Q, I109V, G172A, V231A; anti-TROP2 wt) (bispecific antibody)
light: B1 light
heavy: not shown
The Kd is the concentration at which binding is half-saturated. For the molecule B4, in experiment [3], the “H292 Cytotox EC50” value worked out at 2.1 pM. In experiment [6], this molecule gave a Kd of 9.11 nM and a Response of 0.931.

B5: TCE-46 (bispecific antibody)
light chain (anti-TROP2 LC wt): B1 light
heavy chain (anti-CD3 scFv F240A + linker + anti-TROP2 D109A HC): not shown
notes: also called anti-CD3 scFv (F240A) + linker + anti-TROP2 (D109A) HC; anti-TROP2 LC wt
In experiment [7], B5 showed a concentration for a half-maximal effect (EC50) of 1.09 nM.

B6: TCE-43 (anti-CD3 scFv wt, anti-TROP2 HC D109A) (bispecific antibody)
light: B1 light
heavy: not shown
Turning to B6, the “H292 Cytotox EC50” value in [8] is 1 pM. Moreover, in experiment [9], the “CynoTROP2 + HEK293 cells Cytotox EC50” value amounted to 0.1 pM. In experiment [10], a half-maximal response (EC50) required 1.07 nM.

B7: TCE-39 (anti-CD3 scFv F104A, anti-TROP2 HC F108A) (bispecific antibody)
light: B1 light
heavy: not shown
On to B7, for which the results for the EC50 (with Cyno CD3; in [11]; in experiment [10]) were 0.671 nM, 0.761 nM and 1.02 nM, respectively.

B8: TCE-37 (anti-CD3 scFv wt, anti-TROP2 HC F108A) (bispecific antibody)
light: B1 light
heavy: not shown
For the molecule B8, in experiment [12], the “HCT116 Cytotox EC50” value came to 109 pM. The “H292 Cytotox EC50” value in experiment [8] stood at 5 pM. The “CynoTROP2 + HEK293 cells Cytotox EC50” value in [9] was determined as 0.2 pM. The EC50 in the experiment with Cyno CD3 was 0.184 nM; in [10], 1.15 nM.

B9: TCE-42 (anti-CD3 scFv with N30Q, I109V, G172A, V231A; anti-TROP2 HC F108A) (bispecific antibody)
light: B1 light
heavy: not shown
Turning to B9, in the experiment with Cyno CD3, it took 0.354 nM to reach a half-maximal effect (EC50).

B10: TCE-40 (anti-CD3 scFv F240A, anti-TROP2 HC F108A) (bispecific antibody)
light: B1 light
heavy: not shown
In the case of B10, the “HCT116 Cytotox EC50” value in [12] is above 3000 pM. The “CynoTROP2 + HEK293 cells Cytotox EC50” value in [9] came out at 5 pM. The EC50 with Cyno CD3 amounted to 0.482 nM; in experiment [11], 0.531 nM.

B11: TCE-44 (bispecific antibody)
light chain (anti-TROP2 LC wt): B1 light
heavy chain (anti-CD3 scFv H101A + linker + anti-TROP2 D109A HC): not shown
notes: also called anti-CD3 scFv (H101A) + linker + anti-TROP2 (D109A) HC; anti-TROP2 LC wt
B11: the EC50 was found to be 0.595 nM in experiment [7] and 1.38 nM in experiment [13].

B12: TCE-45 (anti-CD3 scFv F104A, anti-TROP2 HC D109A) (bispecific antibody)
light: B1 light
heavy: not shown
The molecule B12 registered an EC50 in experiment [13] of 0.893 nM.

B13: TCE-38 (anti-CD3 scFv H101A, anti-TROP2 HC F108A) (bispecific antibody)
light: B1 light
heavy: not shown
As to B13, in experiment [10], the EC50 was 1.28 nM.

B14: TCE-7 (TROP2 Fab HC F108A TCE, scFv on the Fab HC) (bispecific antibody)
light: B1 light
heavy: not shown
notes: Description names a HisTag on the HC
On to B14, for which, in experiment [14], the “TCE Cytotoxicity EC50, H292 + CD8+ T cells” value amounted to 5.6 pM; the “TCE Cytotoxicity EC50, HCT116 + CD8+ T cells” value was found to be 206 pM; the “TCE Cytotoxicity EC50, MDAMB231 + CD8+ T cells” value stood at 47.8 pM. This molecule registered an EC50 in experiment [15] of 1.4 nM.

B15: TCE-41 (anti-CD3 scFv with P41S, A49G, N87S and further mutations as in TCE-35; anti-TROP2 HC F108A) (bispecific antibody)
light: B1 light
heavy: B2 heavy with F362A
Consider B15, for which, in experiment [12], the “HCT116 Cytotox EC50” value stood at 73 pM. Besides, the “H292 Cytotox EC50” value in experiment [8] stood at 3 pM. Further, the Kd in [16] is 1.22 nM.

B16: TCE-4 (TROP2 Fab HC F108A TCE, scFv on the Fab LC) (bispecific antibody)
light: not shown
heavy: QVQLQQSGSELKKPGASVKVSCKASGYTFTNYGMNWVKQAPGQGLKWMGWINTYTGEPTYTDDFKGRFAFSLDTSVSTAYLQISSLKADDTAVYFCARGGFGSSYWYADVWGQGSLVTVSSASTKGPSVFPLAPSSKSTSGGTAALGCLVKDYFPEPVTVSWNSGALTSGVHTFPAVLQSSGLYSLSSVVTVPSSSLGTQTYICNVNHKPSNTKVDKKVEPKSC
notes: Description names HisTag AviTag on the HC
Turning to B16, in [14], the “TCE Cytotoxicity EC50, H292 + CD8+ T cells” value is 0.4 pM; the “TCE Cytotoxicity EC50, HCT116 + CD8+ T cells” value is 18.3 pM; the “TCE Cytotoxicity EC50, MDAMB231 + CD8+ T cells” value was determined as 6.3 pM. Also, the response in experiment [15] was half-maximal at 7.3 nM (EC50).
